For five substances, bacterial growth on trimethoprim, split DHFR, incomplete ubiquitination cascade (ΔE1, ΔE2) and Growth efficiency (max growth density divided by the time of half max growth); number matched to the legend entry by its order in the column and its grey tone results are on record in patent US20250019737A1.

Test [1] has as its target nDHFR-linker 1-His6-Ub (pND-Ub) (mouse) (UniProt P00375). The experiment in a line: cell-based or functional assay.
Test [2] shares this target.

vWA Q149A, sequence (P00375 whole entry, stated change not applied): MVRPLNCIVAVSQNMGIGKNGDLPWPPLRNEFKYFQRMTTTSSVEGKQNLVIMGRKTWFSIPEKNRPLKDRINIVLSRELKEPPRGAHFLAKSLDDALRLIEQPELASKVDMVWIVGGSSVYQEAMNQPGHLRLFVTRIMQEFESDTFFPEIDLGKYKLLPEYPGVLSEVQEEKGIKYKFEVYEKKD
vWA Q149R, sequence (P00375 whole entry, stated change not applied): as above
vWA T173,175R, sequence (P00375 whole entry): as the sequence (P00375 whole entry, stated change not applied) above
vWA, sequence (P00375 whole entry): as the sequence (P00375 whole entry, stated change not applied) above

In test [1], “cDHFR-Vps9 (pCD-Sub) (from UniProt P00375 109-187; P54787 1-451)” had a bacterial growth on trimethoprim, split DHFR, incomplete ubiquitination cascade (ΔE1, ΔE2) of 0.1 µg/mL. The substance vWA (from UniProt P00375) showed a Growth efficiency (max growth density divided by the time of half max growth); number matched to the legend entry by its order in the column and its grey tone in test [2] of 1230. The same measure, in the same setting: with vWA Q149A (from UniProt P00375) the figure was 715; with vWA Q149R (from UniProt P00375), 516; with vWA T173,175R (from UniProt P00375), 62.
